The values below are quoted from earlier work in article PMC2888830.

The data set concerns the target integrin αIIbβ3 (Homo sapiens) (UniProt P08514).

By Kd is commonly meant the constant that tells how readily two partners part at equilibrium. In the case of disagregin (from UniProt P36235), the Kd is 40 nM.
